Measured values: publication PMC7517352 (Frontiers in Microbiology, 2020)

Biological target: T1, VapC21 toxin (Rv2757c) of the VapBC21 complex co-expressed from pET-Duet (M. tuberculosis, UniProt P9WF91 1-138)
T1 construct: also called VapC21 (in VapBC21 complex); not shown: His6, N-terminal, kept
T1 sequence: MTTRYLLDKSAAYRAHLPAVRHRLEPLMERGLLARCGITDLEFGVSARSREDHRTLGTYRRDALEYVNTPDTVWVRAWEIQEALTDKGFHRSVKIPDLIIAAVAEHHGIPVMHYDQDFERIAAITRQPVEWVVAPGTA
Assay: SEC-MALS
Details: both partners purified

B1: VapB21 antitoxin (Rv2758c) of the VapBC21 complex co-expressed from pET-Duet (natural protein)
chain: MHRGYALVVCSPGVTRTMIDIDDDLLARAAKELGTTTKKDTVHAALRAALRASAARSLMNRMAENATGTQDEALVNAMWRDGHPENTA
notes: also called VapB21 (in VapBC21 complex)
- stoichiometry N: 1 antitoxin per toxin (4:4)
